Reference: publication PMC10397321

Assays:
[1] = molecular target: photosystem I (PSI) monomer (Synechocystis sp. PCC 6803) (UniProt P29254); test: cryo-EM structure; native PSI3-IsiA18 supercomplex co-purified from Synechocystis sp. PCC 6803 membranes in DDM; 30 mM Tricine-NaOH pH 8, 75 mM NaCl, 0.02% DDM; 1.5 mg chlorophyll/ml; vitrified on holey carbon grids; C3 symmetry expansion and multibody refinement
[2] = molecular target: photosystem I (PSI) monomer (Synechocystis sp. PCC 6803) (UniProt P29254)

photosystem I (PSI) monomer (Synechocystis sp. PCC 6803), sequence (P29254 whole entry, looked up): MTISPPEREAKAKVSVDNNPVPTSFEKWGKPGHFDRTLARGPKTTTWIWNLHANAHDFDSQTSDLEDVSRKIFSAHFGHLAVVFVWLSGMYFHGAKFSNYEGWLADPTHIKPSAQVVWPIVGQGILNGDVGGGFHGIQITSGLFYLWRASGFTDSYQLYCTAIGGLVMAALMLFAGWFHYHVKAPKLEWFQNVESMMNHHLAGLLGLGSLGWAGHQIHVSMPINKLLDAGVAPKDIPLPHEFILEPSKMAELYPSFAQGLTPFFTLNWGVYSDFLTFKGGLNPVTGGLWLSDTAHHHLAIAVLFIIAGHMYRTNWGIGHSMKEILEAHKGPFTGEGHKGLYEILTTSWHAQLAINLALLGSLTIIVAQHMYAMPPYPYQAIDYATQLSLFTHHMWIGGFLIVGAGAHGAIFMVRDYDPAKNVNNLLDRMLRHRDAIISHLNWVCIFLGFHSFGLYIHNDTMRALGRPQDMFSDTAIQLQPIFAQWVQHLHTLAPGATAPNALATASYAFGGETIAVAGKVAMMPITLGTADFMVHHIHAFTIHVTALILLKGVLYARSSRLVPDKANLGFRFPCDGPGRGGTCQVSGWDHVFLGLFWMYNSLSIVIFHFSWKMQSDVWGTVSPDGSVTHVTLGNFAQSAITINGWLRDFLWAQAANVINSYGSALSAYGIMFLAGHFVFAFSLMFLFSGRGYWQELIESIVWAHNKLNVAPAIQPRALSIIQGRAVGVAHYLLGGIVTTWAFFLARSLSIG
iron-stressed induced protein A (IsiA), sequence (Q55274 whole entry): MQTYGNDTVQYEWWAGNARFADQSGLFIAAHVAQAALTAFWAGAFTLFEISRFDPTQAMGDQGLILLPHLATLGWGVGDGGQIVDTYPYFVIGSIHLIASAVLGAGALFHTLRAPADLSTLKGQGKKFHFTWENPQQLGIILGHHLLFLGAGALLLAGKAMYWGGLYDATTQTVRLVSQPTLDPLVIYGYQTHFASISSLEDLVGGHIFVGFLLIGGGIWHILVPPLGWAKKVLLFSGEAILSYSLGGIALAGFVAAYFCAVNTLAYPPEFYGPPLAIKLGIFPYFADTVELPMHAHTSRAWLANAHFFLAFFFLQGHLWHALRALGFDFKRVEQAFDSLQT

“photosystem I (PSI) monomer (from UniProt P29254 1-751; P29255 1-731; P29256 24-165; Q55329 1-40; P72712 1-86) (complex)” was tested, and the stoichiometry N [1] was 3.

“iron-stressed induced protein A (IsiA) (from UniProt Q55274 1-342) (natural protein)” was tested, and the single-molecule fluorescence lifetime: share of complexes with bi-exponential decay at all intensity levels (partially coupled, population II) [2] was 4%, the single-molecule fluorescence lifetime: share of complexes with fast mono-exponential decay at all intensity levels (continuously coupled) [2] was 60% and the single-molecule fluorescence lifetime: share of complexes with mono-exponential levels interleaved with bi-exponential levels (transiently coupled, population I) [2] was 36%.
